One block for each binder: values may come before it.
Key:
Conditions in all cases: both partners purified
[1] = target: T1, Ski2-like helicase 1 (Slh1), subunit of the RQT complex, wild type (yeast, UniProt P53327 1-1967); experiment: cryo-EM structure; RQT-80S complex in conformation C1 (classical POST state); ubiquitinated CGN12-stalled disomes incubated 5 min at 25 °C with purified wild-type RQT and 1 mM ATP (post-splitting sample), vitrified; 80S refined to 2.4 Å, RQT locally refined to 3.5 Å
T1 construct: Slh1 (Rqt2), ATP-dependent Ski2-like RNA helicase of yeast RQT, 1967 amino acids; NTC residues 217-1122 and CTC residues 1123-1967 modelled, N-terminal domain 1-217 not visible; Co-purified with Cue3 and Rqt4 as the trimeric RQT complex; Eluted by TEV cleavage of the FTP tag; also called Rqt2; Slh1-FTP; source: yeast strain overexpressing RQT components (Slh1-FTP, Cue3, Rqt4), purified …
T1 sequence (P53327 whole entry, the tested form may be a part, one chain of several): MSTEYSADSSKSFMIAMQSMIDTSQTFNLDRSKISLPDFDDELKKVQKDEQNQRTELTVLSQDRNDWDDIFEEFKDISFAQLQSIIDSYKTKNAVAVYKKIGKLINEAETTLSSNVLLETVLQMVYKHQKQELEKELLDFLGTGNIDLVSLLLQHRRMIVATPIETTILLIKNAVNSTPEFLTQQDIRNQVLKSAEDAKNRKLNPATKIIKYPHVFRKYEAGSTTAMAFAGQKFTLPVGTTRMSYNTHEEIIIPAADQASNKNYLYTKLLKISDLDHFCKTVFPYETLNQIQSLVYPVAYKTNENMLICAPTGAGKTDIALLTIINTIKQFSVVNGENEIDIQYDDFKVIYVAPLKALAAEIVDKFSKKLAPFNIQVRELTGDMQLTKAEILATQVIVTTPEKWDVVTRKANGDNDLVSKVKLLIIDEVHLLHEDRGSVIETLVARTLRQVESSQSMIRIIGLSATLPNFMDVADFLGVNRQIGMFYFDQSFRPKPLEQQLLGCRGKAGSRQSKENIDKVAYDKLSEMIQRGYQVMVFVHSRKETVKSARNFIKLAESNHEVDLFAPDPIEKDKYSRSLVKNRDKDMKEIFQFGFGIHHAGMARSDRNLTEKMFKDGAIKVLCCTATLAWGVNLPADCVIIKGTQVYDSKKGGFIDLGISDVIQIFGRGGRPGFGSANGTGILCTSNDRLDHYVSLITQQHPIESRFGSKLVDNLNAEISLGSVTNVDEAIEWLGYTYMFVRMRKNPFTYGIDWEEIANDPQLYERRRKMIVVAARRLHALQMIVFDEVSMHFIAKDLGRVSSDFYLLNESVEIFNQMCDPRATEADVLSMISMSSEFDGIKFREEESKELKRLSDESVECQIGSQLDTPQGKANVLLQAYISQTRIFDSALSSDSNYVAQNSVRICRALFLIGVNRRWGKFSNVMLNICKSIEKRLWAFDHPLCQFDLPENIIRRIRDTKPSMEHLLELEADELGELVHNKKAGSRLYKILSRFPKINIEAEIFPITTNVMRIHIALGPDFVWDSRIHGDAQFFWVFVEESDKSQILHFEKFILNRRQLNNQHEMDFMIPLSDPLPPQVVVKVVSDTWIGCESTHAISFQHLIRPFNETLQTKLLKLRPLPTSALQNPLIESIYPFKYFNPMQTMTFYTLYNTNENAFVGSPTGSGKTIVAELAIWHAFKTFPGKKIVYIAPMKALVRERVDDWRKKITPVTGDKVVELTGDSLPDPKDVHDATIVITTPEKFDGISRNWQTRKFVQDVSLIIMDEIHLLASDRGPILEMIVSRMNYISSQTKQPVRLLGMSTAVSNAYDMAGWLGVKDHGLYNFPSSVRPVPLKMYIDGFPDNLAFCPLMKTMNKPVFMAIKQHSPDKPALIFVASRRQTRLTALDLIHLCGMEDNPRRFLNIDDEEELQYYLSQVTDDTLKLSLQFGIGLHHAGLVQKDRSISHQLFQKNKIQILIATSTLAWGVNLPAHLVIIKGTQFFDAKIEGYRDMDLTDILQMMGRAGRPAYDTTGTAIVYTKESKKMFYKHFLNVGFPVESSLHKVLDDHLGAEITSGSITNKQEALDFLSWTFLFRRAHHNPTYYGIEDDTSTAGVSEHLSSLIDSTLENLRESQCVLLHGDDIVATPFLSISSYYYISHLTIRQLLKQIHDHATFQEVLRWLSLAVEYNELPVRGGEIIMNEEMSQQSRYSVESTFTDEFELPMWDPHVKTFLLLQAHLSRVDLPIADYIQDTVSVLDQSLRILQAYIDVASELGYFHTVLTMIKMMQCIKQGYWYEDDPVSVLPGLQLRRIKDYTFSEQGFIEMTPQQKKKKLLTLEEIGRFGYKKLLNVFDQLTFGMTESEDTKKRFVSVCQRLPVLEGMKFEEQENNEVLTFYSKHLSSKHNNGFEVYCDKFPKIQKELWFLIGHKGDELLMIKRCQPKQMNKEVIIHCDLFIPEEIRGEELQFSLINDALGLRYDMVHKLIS

[2] = target: T2, Slh1-K316R, ATPase-deficient Walker A mutant of the N-terminal cassette, subunit of K316R-RQT (yeast, UniProt P53327 1-1967, K316R); experiment: cryo-EM structure; pre-splitting samples: ubiquitinated CGN6-stalled disomes with wild-type RQT, or ubiquitinated CGN12-stalled disomes with K316R-RQT (RQT*), 1 mM ATP, 5 min at 25 °C; RQT seen on the lead ribosome of intact disomes
T2 construct: Slh1 (Rqt2) of yeast RQT, 1967 amino acids, with the ATPase-deficient mutation K316R; Probably made and tagged like the wild-type Slh1-FTP; also called K316R-Slh1; source: purified RQT complex (K316R-Slh1 mutant)
T2 sequence (P53327 whole entry K316R): as the sequence (P53327 whole entry, the tested form may be a part, one chain of several) above, with K316R counted along it

[3] = target: T1, Ski2-like helicase 1 (Slh1), subunit of …; experiment: as above

B1: RACK1 (Asc1) of the 40S head (natural protein, UniProt P38011 1-319, looked up)
chain: MASNEVLVLRGTLEGHNGWVTSLATSAGQPNLLLSASRDKTLISWKLTGDDQKFGVPVRSFKGHSHIVQDCTLTADGAYALSASWDKTLRLWDVATGETYQRFVGHKSDVMSVDIDKKASMIISGSRDKTIKVWTIKGQCLATLLGHNDWVSQVRVVPNEKADDDSVTIISAGNDKMVKAWNLNQFQIEADFIGHNSNINTLTASPDGTLIASAGKDGEIMLWNLAAKKAMYTLSAQDEVFSLAFSPNRYWLAAATATGIKVFSLDPQYLVDDLRPEFAGYSKAAEPHAVSLAWSADGQTLFAGYTDNVIRVWQVMTAN
notes: RACK1 (Asc1), protein at the back side of the 40S head of the yeast ribosome; Stood in the assay as part of the whole 80S ribosome; source: endogenous, in ribosomes of a yeast cell-free translation extract; ribosome-nascent chain complexes purified (His-tag Dynabeads, sucrose gradient)
binding result [1]: binds

B2: Rqt4, zinc-finger containing subunit of the RQT complex (natural protein, yeast)
chain: MTRKQAIDYAIKQVPQILPLEESDVKALCEQVLSTSSDDPEQIASKFLEFLGHEDLSFEFVMKFNELLNQNDKKEEKKTKNVHLEHTAPTSWKNESKQPTNNYINKKGDEKPKKLKDEKKSSTTRPTVQPSNQSTQSNPIKEKKEHRSKGKLQSLQEIDEAIKMLELRDSGSSKNCNCQGTRHPVFDIAPNCLHCGKVVCVIEGLNKGKCGHCHEQLISDNERTQMVEILNQEKNELNGSSSSLSNASNGANVPKKKTKTYKITSGMGKNLFAEQDKLFDFIERKRERERKRNEVLKLQEEKEESEAKERQASEHDHKAEENPELLAAQERLDRLLYFQDTSAERTKIIDNASDFDMNQEVGLWGSARERALALKKQQRNLRKWEKVEKERNGRREKYVVSMNIGSNGKVTMTEVPKDTENVIAGSDDDISDISDEEDISDLKHIHALKSEINTTKSLENLHLQSKAWDYERDKKQFDRPTYVKKNSDTAQQNRKTEEKAHDMQAYDLKSRVQVDQNADASVEQNILAVL
notes: Rqt4 of yeast RQT; two parts modelled (residues 171-219 and 323-381); PWI-like domain 1-74, helices flanking the zinc finger and the C-terminus not visible
binding result [2]: binds
binding result [3]: binds

B3: ribosomal protein uS5 of the 40S subunit (natural protein, UniProt P25443 1-254, looked up)
chain: MSAPEAQQQKRGGFGGRNRGRPNRRGPRNTEEKGWVPVTKLGRLVKAGKITTIEEIFLHSLPVKEFQIIDTLLPGLQDEVMNIKPVQKQTRAGQRTRFKAVVVVGDSNGHVGLGIKTAKEVAGAIRAGIIIAKLSVIPIRRGYWGTNLGQPHSLATKTTGKCGSVTVRLIPAPRGSGIVASPAVKKLLQLAGVEDVYTQSNGKTRTLENTLKAAFVAIGNTYGFLTPNLWAEQPLPVSPLDIYSDEASAQKKRF
notes: uS5 (Rps2), 40S ribosomal protein of yeast; its usually flexible N-terminus is seen as extra density; Stood in the assay as part of the whole 80S ribosome; source: endogenous, in ribosomes of a yeast cell-free translation extract; ribosome-nascent chain complexes purified (His-tag Dynabeads, sucrose gradient)
binding result [1]: binds

Other lines, results leading:

binding result [2]: binds
binding result [3]: binds
B4: Cue3 (Rqt3), ubiquitin-binding CUE domain containing subunit of the RQT complex (natural protein, yeast, UniProt P53137 1-624, looked up)
chain: MLSRYNRVIEINGGNADISLPIVKFPPFKLRAQLIEKDPVVWLHLIETYVTYFEYLMQGANVELLDESTLDHLRLFLRTYLHEIADEEGKLLSLGINHDVSEQLYLLKGWIFSLIKKCGLLHLQIFGDSLWNLIKVYVRRNPDSIRGLIDGSLKPRINTQRVQLDKSYQVQQHLKQLIESGKFKRIDLRCVEDLLSAKSMQPNKFAENFFTANWIEILEALWAKGQGRGHKEARELIIISLFSVSADRLLKITKELGISNFETLALYPLLGTMLINEGVHKRLPDLKSKLLFLNLGGLSMDEGDHMSYPTSSGTEVNEEQLSALMELFPQFSKYQLSQTLLAYDNNIELVTNKIFEDPTIIEAFSREPAEEEVEPVSDGDNASFTEELSILDRGDSSKNKELDKKIISEGVPDELRNKTLTRALKLLYEADEDERDDTYDEADVNRSDPSKRIGLQEDEESYDTKDDSNEVRQDHNYHIVEAYLWNLLKEDPKLFERSKRGTKVRKTMKEMTSWSDEKIEGWCRMLERSPTRARLLEKKFMFKGNSKTGKTSYVHNRDSQNDGNVVKEQAKQKKSENIKKHEPQSTEQKKRQHAKNEKRKGARANHNRKKGHDKKLARAGNNAI
notes: Cue3 (Rqt3) of yeast RQT; only the N-terminal helical domain 1-297 modelled; CUE domain 298-360, four-helix bundle 468-541 and C-terminus 542-624 not visible

binding result [1]: binds
B5: ribosomal protein uS3 of the 40S subunit (natural protein, UniProt P05750 1-240, looked up)
chain: MVALISKKRKLVADGVFYAELNEFFTRELAEEGYSGVEVRVTPTKTEVIIRATRTQDVLGENGRRINELTLLVQKRFKYAPGTIVLYAERVQDRGLSAVAQAESMKFKLLNGLAIRRAAYGVVRYVMESGAKGCEVVVSGKLRAARAKAMKFADGFLIHSGQPVNDFIDTATRHVLMRQGVLGIKVKIMRDPAKSRTGPKALPDAVTIIEPKEEEPILAPSVKDYRPAEETEAQAEPVEA
notes: uS3 (Rps3), 40S ribosomal protein of yeast, part of the stalled ribosome; Stood in the assay as part of the whole 80S ribosome or disome, which had been ubiquitinated in vitro with Hel2; source: endogenous, in ribosomes of a yeast cell-free translation extract; ribosome-nascent chain complexes purified (His-tag Dynabeads, sucrose gradient)
